The target of one assay is HLA-B*08:01. Nature of the assay: IEDB peptide-MHC binding, purified MHC/competitive/fluorescence; ≥ and ≤ were set here for values at or beyond the usual limits of such assays.
Another assay deals with HLA-A*24:02. Described as above. As to conditions: source organism: Vaccinia virus.
For another assay, the target named is HLA-B*15:01. The assay is described as above.
The target of the next assay is HLA-A*02:01. The description is as above.
The target of assay [1] is HLA-B*07:02. Described as above.
The next assay addresses HLA-B*51:01. The experiment in a line: IEDB peptide-MHC binding, purified MHC/competitive/fluorescence; filed as Kd, often an IC50 or EC50 that approximates it; ≥ and ≤ were set here for values at or beyond the usual limits of such assays. As to conditions: source organism: Mycobacterium tuberculosis H37Rv.
In the next assay the target is HLA-B*35:01. Described as above. Conditions: source organism: Mycobacterium tuberculosis H37Rv.
Assay [2] has as its target HLA-B*07:02. The experiment in a line: IEDB peptide-MHC binding, purified MHC/direct/fluorescence; filed as Kd, often an IC50 or EC50 that approximates it; ≥ and ≤ were set here for values at or beyond the usual limits of such assays. As to conditions: source organism: Mycobacterium tuberculosis variant bovis.
The mark [3] stands for this setting: source organism: Vaccinia virus.
Where [4] appears, read: source organism: Vaccinia virus Copenhagen.
[5] abbreviates: source organism: Zaire ebolavirus.

Bounds are passed on as bounds.

Turning to GMLRFANPL, the IC50 (commonly the concentration that inhibits the measured activity by half) in the assay with HLA-B*08:01 (setting [3]) was 11.8 µM; with HLA-A*24:02, 8.07 µM; in the assay with HLA-B*15:01 (setting [3]), 1.69 µM; in the assay with HLA-A*02:01 (setting [3]), 0.651 µM; with HLA-B*07:02 [1] (setting [3]) it was 5.38 µM.
Regarding ILRSIEGEL, the IC50 is at least 524 µM with HLA-B*08:01 (setting [4]), 39.8 µM with HLA-B*15:01 (setting [4]) and 33.9 µM with HLA-B*07:02 [1] (setting [4]).
Turning to LPAGSPVAV, the figures for the Kd in the assay with HLA-B*51:01, in the assay with HLA-B*35:01 and with HLA-B*07:02 [2] were 453 nM, 2.7 nM and 240 nM, respectively.
As for QLREAATEA, the IC50 was at least 192 µM with HLA-B*08:01 (setting [5]), 62.1 µM with HLA-B*15:01 (setting [5]), 20 µM with HLA-A*02:01 (setting [5]) and 28.2 µM with HLA-B*07:02 [1] (setting [5]).
Consider YLFGGFSTL, for which the IC50 is at least 273 µM with HLA-B*08:01 (source organism: Variola virus), 3.33 µM in the assay with HLA-B*15:01 (source organism: Variola virus) and 7.61 µM with HLA-B*07:02 [1] (source organism: Variola virus).
